Legend:
[1] = biological target: T1, HA of A/California/04/2009 (H1N1) (influenza A virus (H1N1)), P26140; assay: ELISA, recombinant HA; conditions: remark: other sources report otherwise
[2] = biological target: T1, HA of A/California/04/2009 (H1N1) …; assay: ELISA; conditions: remark: other sources report otherwise
[3] = biological target: HA of A/Netherlands/219/2003 (H7N7) (influenza A virus (H7N7))
[4] = biological target: HA of A/Indonesia/5/2005 (H5N1) (influenza A virus (H5N1))
[5] = biological target: HA of A/Hong Kong/1073/99 (H9) (influenza A virus (H9))
[6] = biological target: HA of A/shearwater/Western Australia/2576/1979 (H15N9) (influenza A virus (H15N9))
[7] = biological target: HA of A/mallard duck/Astrakhan/263/1982 (H14N5) (influenza A virus (H14N5))
[8] = biological target: HA of A/Shanghai/2/2013 (H7N9) (influenza A virus (H7N9))
[9] = biological target: T1, HA of A/California/04/2009 (H1N1) …; assay: ELISA, recombinant HA; conditions: remark: other sources report otherwise; remark: listed apart in the source
[10] = biological target: T1, HA of A/California/04/2009 (H1N1) …; assay: BLI, Fab on immobilized biotinylated HA; conditions: remark: other sources report otherwise
[11] = biological target: T1, HA of A/California/04/2009 (H1N1) …; assay: BLI, 1:1 global fit; Table S2 of the text prints 48 for this strain; conditions: remark: other sources report otherwise
[12] = biological target: HA of A/Hong Kong/1/1968 (H3N2) (influenza A virus (H3N2)), Q91MA7; conditions: remark: other sources report otherwise

B1: FluA-20 (hybridoma-produced IgG) (antibody, V domains shown)
VH: QVQLQESGPGLVKPSETLSLTCSVSGVSVTSDIYYWTWIRQPPGKGLEWIGYIFYNGDTNYNPSLKSRVTMSIDTSKNEFSLRLTSVTAADTAVYFCARGTEDLGYCSSGSCPNHWGQGTLVTVSS
VL: DIQMTQSPSSLSASIGDRVTITCRPSQNIRSFLNWFQHKPGKAPKLLIYAASNLQSGVPSRFSGSGSGTEFTLTIRSLQPEDFATYYCQQSYNTPPTFGQGTKVEIK
B1 was tested, and the EC50 [1] was 0.01 µg/mL and the EC50 [2] was 0.008 µg/mL.

B2: rFluA-20 heavy chain mutant D98A (antibody, V domains shown)
VH: QVQLQESGPGLVKPSETLSLTCSVSGVSVTSDIYYWTWIRQPPGKGLEWIGYIFYNGDTNYNPSLKSRVTMSIDTSKNEFSLRLTSVTAADTAVYFCARGTEALGYCSSGSCPNHWGQGTLVTVSS
VL: DIQMTQSPSSLSASIGDRVTITCRPSQNIRSFLNWFQHKPGKAPKLLIYAASNLQSGVPSRFSGSGSGTEFTLTIRSLQPEDFATYYCQQSYNTPPTFGQGTKVEIK
For B2, the EC50 fold over wild-type rFluA-20 [3] was greater than 100 fold.

B3: rFluA-20 heavy chain mutant Y100aA (antibody, V domains shown)
VH: QVQLQESGPGLVKPSETLSLTCSVSGVSVTSDIYYWTWIRQPPGKGLEWIGYIFYNGDTNYNPSLKSRVTMSIDTSKNEFSLRLTSVTAADTAVYFCARGTEDLGACSSGSCPNHWGQGTLVTVSS
VL: DIQMTQSPSSLSASIGDRVTITCRPSQNIRSFLNWFQHKPGKAPKLLIYAASNLQSGVPSRFSGSGSGTEFTLTIRSLQPEDFATYYCQQSYNTPPTFGQGTKVEIK
B3 gave an EC50 fold over wild-type rFluA-20 [4] greater than 100 fold, an EC50 fold over wild-type rFluA-20 [5] greater than 100 fold and an EC50 fold over wild-type rFluA-20 [6] greater than 100 fold. For the same binder, the EC50 fold over wild-type rFluA-20 [7] was greater than 100 fold, the EC50 fold over wild-type rFluA-20 [8] was greater than 100 fold and the EC50 fold over wild-type rFluA-20 [3] was greater than 100 fold.

B4: rFluA-20 heavy chain mutant E97A (antibody, V domains shown)
VH: QVQLQESGPGLVKPSETLSLTCSVSGVSVTSDIYYWTWIRQPPGKGLEWIGYIFYNGDTNYNPSLKSRVTMSIDTSKNEFSLRLTSVTAADTAVYFCARGTADLGYCSSGSCPNHWGQGTLVTVSS
VL: DIQMTQSPSSLSASIGDRVTITCRPSQNIRSFLNWFQHKPGKAPKLLIYAASNLQSGVPSRFSGSGSGTEFTLTIRSLQPEDFATYYCQQSYNTPPTFGQGTKVEIK
Work on B4 yielded an EC50 fold over wild-type rFluA-20 [4] greater than 100 fold, an EC50 [5] of 0.36 µg/mL and an EC50 [6] of 0.12 µg/mL. For the same binder, the EC50 [7] was 0.64 µg/mL, the EC50 [8] was 1 µg/mL and the EC50 [3] was 0.08 µg/mL.

B5: rFluA-20 (recombinant FluA-20 IgG) (antibody, V domains shown)
VH: QVQLQESGPGLVKPSETLSLTCSVSGVSVTSDIYYWTWIRQPPGKGLEWIGYIFYNGDTNYNPSLKSRVTMSIDTSKNEFSLRLTSVTAADTAVYFCARGTEDLGYCSSGSCPNHWGQGTLVTVSS
VL: DIQMTQSPSSLSASIGDRVTITCRPSQNIRSFLNWFQHKPGKAPKLLIYAASNLQSGVPSRFSGSGSGTEFTLTIRSLQPEDFATYYCQQSYNTPPTFGQGTKVEIK
In the case of B5, the EC50 [9] is reported as 0.031 µg/mL and the EC50 [1] is reported as 0.012 µg/mL.

B6: FluA-20 Fab (Fab, V domains shown)
VH: QVQLQESGPGLVKPSETLSLTCSVSGVSVTSDIYYWTWIRQPPGKGLEWIGYIFYNGDTNYNPSLKSRVTMSIDTSKNEFSLRLTSVTAADTAVYFCARGTEDLGYCSSGSCPNHWGQGTLVTVSS
VL: DIQMTQSPSSLSASIGDRVTITCRPSQNIRSFLNWFQHKPGKAPKLLIYAASNLQSGVPSRFSGSGSGTEFTLTIRSLQPEDFATYYCQQSYNTPPTFGQGTKVEIK
B6 gave a Kd [10] of 48 nM and a Kd [11] of 46 nM.

B7: rFluA-20 light chain mutant Q55A (antibody, V domains shown)
VH: QVQLQESGPGLVKPSETLSLTCSVSGVSVTSDIYYWTWIRQPPGKGLEWIGYIFYNGDTNYNPSLKSRVTMSIDTSKNEFSLRLTSVTAADTAVYFCARGTEDLGYCSSGSCPNHWGQGTLVTVSS
VL: DIQMTQSPSSLSASIGDRVTITCRPSQNIRSFLNWFQHKPGKAPKLLIYAASNLASGVPSRFSGSGSGTEFTLTIRSLQPEDFATYYCQQSYNTPPTFGQGTKVEIK
Work on B7 yielded an EC50 [12] of 0.08 µg/mL.

B8: rFluA-20 heavy chain mutant Y34A (antibody, V domains shown)
VH: QVQLQESGPGLVKPSETLSLTCSVSGVSVTSDIAYWTWIRQPPGKGLEWIGYIFYNGDTNYNPSLKSRVTMSIDTSKNEFSLRLTSVTAADTAVYFCARGTEDLGYCSSGSCPNHWGQGTLVTVSS
VL: DIQMTQSPSSLSASIGDRVTITCRPSQNIRSFLNWFQHKPGKAPKLLIYAASNLQSGVPSRFSGSGSGTEFTLTIRSLQPEDFATYYCQQSYNTPPTFGQGTKVEIK
For B8, the EC50 fold over wild-type rFluA-20 [4] was greater than 100 fold, the EC50 [5] was 0.21 µg/mL and the EC50 [6] was 0.1 µg/mL. The EC50 [7] was 0.54 µg/mL, the EC50 [8] was 0.44 µg/mL and the EC50 [3] was 0.07 µg/mL.

B9: rFluA-20 heavy chain mutant T96A (antibody, V domains shown)
VH: QVQLQESGPGLVKPSETLSLTCSVSGVSVTSDIYYWTWIRQPPGKGLEWIGYIFYNGDTNYNPSLKSRVTMSIDTSKNEFSLRLTSVTAADTAVYFCARGAEDLGYCSSGSCPNHWGQGTLVTVSS
VL: DIQMTQSPSSLSASIGDRVTITCRPSQNIRSFLNWFQHKPGKAPKLLIYAASNLQSGVPSRFSGSGSGTEFTLTIRSLQPEDFATYYCQQSYNTPPTFGQGTKVEIK
B9 showed an EC50 [4] of 0.11 µg/mL, an EC50 [5] of 0.1 µg/mL and an EC50 [6] of 0.07 µg/mL. For the same binder, the EC50 [7] was 0.23 µg/mL, the EC50 [8] was 0.37 µg/mL and the EC50 [3] was 0.04 µg/mL.
